# ± gives the uncertainty stated by the source.
# Experiment: abundance fitness (aPCA) (normalised: wild type 0, dead -1); higher = more abundant; growth selection in yeast, the domain comes from the species named
# Conditions: Homo sapiens
row,Substance,abundance fitness
1,"Gamma-crystallin D G100C, P07320",-0.117 ± 0.096
2,"Gamma-crystallin D G100D, P07320",0.069 ± 0.11
3,"Gamma-crystallin D G100E, P07320",-0.069 ± 0.085
4,"Gamma-crystallin D G100F, P07320",-0.779 ± 0.17
5,"Gamma-crystallin D G100H, P07320",-0.561 ± 0.28
6,"Gamma-crystallin D G100I, P07320",-0.826 ± 0.36
7,"Gamma-crystallin D G100K, P07320",-0.325 ± 0.17
8,"Gamma-crystallin D G100L, P07320",-0.266 ± 0.075
9,"Gamma-crystallin D G100M, P07320",-0.356 ± 0.14
10,"Gamma-crystallin D G100Q, P07320",-0.565 ± 0.17
11,"Gamma-crystallin D G100R, P07320",-0.437 ± 0.073
12,"Gamma-crystallin D G100T, P07320",-0.889 ± 0.45
13,"Gamma-crystallin D G100V, P07320",-1.13 ± 0.16
14,"Gamma-crystallin D G100Y, P07320",-0.839 ± 0.32
15,"Gamma-crystallin D I103E, P07320",0.037 ± 0.13
16,"Gamma-crystallin D I103H, P07320",-0.186 ± 0.088
17,"Gamma-crystallin D I103Q, P07320",-0.03 ± 0.13
18,"Gamma-crystallin D I103R, P07320",0.055 ± 0.064
19,"Gamma-crystallin D L112E, P07320",-0.383 ± 0.045

# — the Human Domainome abundance scans (Beltran et al. 2025)
